Experimental data from US20260069707A1, “COMBINATION THERAPY WITH ANTIBODY-DRUG CONJUGATES AND HYALURONIDASES” (HALOZYME, INC., priority 2024, published 2026).

Columns and labels:
[1] = Histological analysis (H&E) of post-injection tissue samples; format: in vivo, Yucatan miniature pig (Sus scrofa domestica)
Text: Following the assessment after day three, the animal was humanely euthanized using an injectable euthanasia drug provided by the vivarium staff. Following euthanasia full thickness punch biopsies of the injection site were taken (12 mm) and placed in 10% formalin. After obtaining the punch biopsies the animal carcass was removed and disposed of as biohazardous waste. Sections were made from tissue samples and assessed for histopathology using hematoxylin and eosin staining methods. Analyses were performed on each injection site (2 biopsies) and one untreated site. Three tissue depths were examined from each tissue section following level sectioning technique, representing the beginning, middle and end of each section.
After fixation the samples were processed and embedded into paraffin to make formalin fixed paraffin embedded (FFPE) tissues sections Each tissue section was evaluated at three different tissue depths (1-2-3; low-medium-high). In addition to tissue samples from the injection site, a sample was taken from naïve untreated tissue for comparison.
Each injection was one mL and was delivered using a pre-filled 1-cc syringe. After the last timepoint, the animal was humanely euthanized. After euthanasia, punch biopsies of each injection site were obtained and preserved in 10% formalin for histological analyses.
After fixation, the samples were processed and embedded into paraffin to make formalin fixed paraffin embedded (FFPE) tissues sections Each tissue section was evaluated at three different tissue depths (1-2-3; low-medium-high). In addition to tissue samples from the injection site, a sample was taken from two naïve untreated tissue sites for comparison. Tissue sections were prepared and stained with hematoxylin and eosin for pathohistological evaluation.
Method: After 72h, animals were euthanized and full-thickness punch biopsies taken (12 mm). FFPE sections were prepared from each injection site. Samples were evaluated at three different tissue depths. A sample of naïve skin was also included for comparison. Results: 1/3 tissue samples from ADC alone had multiple focal infiltrates in SC (all levels).

[2] = pig, in vivo, sc
Experimental: Porcine serum was used as surrogate matrix to prepare calibration standards and quality controls for skin sample quantitation. Untreated blank porcine skin was provided for preparation of monitoring quality controls. The porcine skin was homogenized at an approximate ratio of 0.5 mL of buffer for every 100 mg of skin.
Porcine serum was used as surrogate matrix to prepare calibration standards and quality controls for the quantitation of skin samples. Supported liquid-liquid extraction was used for sample clean up. […] The porcine skin was homogenized at an approximate ratio of 0.5 mL of buffer for every 100 mg of skin.
Therefore, nominal time points were used for PK analyses. To estimate the serum concentration at time zero for intravenous (IV) data, a second-order polynomial regression was applied to the early serum time points (0.25, 1, and 2 hours). The intercept of the fitted polynomial curve was used as the extrapolated concentration at time zero. Skin concentration data (μg/mL) was normalized to total protein (mg/mL) per sample, resulting in values represented as μg/mg protein.
Pharmacokinetic parameters were calculated using noncompartmental methods performed in Microsoft Excel. The area under the concentration-time curve (AUC) was determined using the linear trapezoidal rule. For serum data, AUC0-7 was calculated using all available time points. For skin data, AUC1-7 was computed based on the three available time point measurements. The maximum observed concentration (Cmax) was identified directly from the dataset, and the time at which it occurred (Tmax) was recorded. All calculations were performed using Microsoft Excel.
This sample was divided vertically into two identical pieces. One skin sample was placed into a pre-weighed cryogenic tube and its weight was recorded then stored on dry ice prior to transfer to ≤−70° C. The other skin sample was processed for potential future histological assessment into OCT freezing media and frozen on dry ice.
Animals received two SC doses on their lower abdominal region.
Two cohorts were included in the follow-on study. […] Each animal had two full thickness skin biopsies taken post-mortem using a 12 mm punch. This sample was divided vertically into two identical pieces. One skin sample was placed into a pre-weighed cryogenic tube and its weight was recorded, then stored on dry ice prior to transfer to ≤−70° C. The other skin sample was processed into OCT molds for potential future histological assessment.
Tissue lysates were prepared based upon the weight of the sample at a ratio of 0.2 g/mL homogenization buffer (Tables 64 and 65). The total protein concentration of each homogenate was determined by BCA assay. The concentration of the total ADC (TADC), total antibody (TAB) and free payload (SN38) in each sample was then normalized to the protein concentration and reported in μg analyte per mg total protein.
In this initial study, six animals were used. […] Two cohorts were included in this study. Cohort 1 was euthanized 24 hours after treatment, while Cohort 2 was euthanized 48 hours after exposure to the two test solutions.

[3] = Qualitative assessment of local injection sites (erythema, swelling size, induration); format: in vivo, Yucatan miniature pig (Sus scrofa domestica)
Experimental: The needle was inserted vertically into the marked injection site and the HVAI held in place by hand. Target needle insertion depth was ˜10 mm. Injections were timed using a stopwatch. Upon completion of the injection the needle was removed and the HVAI device discarded. Test solution back-leakage was then absorbed to a tared eye-spear for 30 seconds on the injection site and the weight of the eye spear was measured using an analytical balance. The margins of the injection site bleb were marked with a permanent marker and measured for length, width, and height using a digital caliper and recorded then photographed with the standard and 3D cameras. Caliper measurements and photographs were taken immediately post-injection. Local injection sites were qualitatively assessed and graded daily for erythema severity, swelling size appearance, and firmness, using a scoring system described in Table 4 Table 5, and Table 6, respectively.
Approximately, 24 hours post-dosing of the first injection, each animal was re-anesthetized, and injection sites assessed for erythema, induration and swelling, then photographed and returned to its cage.

[4] = Example 5: post-injection, 10 mL SC by HVAI

With Sacituzumab govitecan [Trodelvy] the Local skin tolerability ([1]; Example 3: 1 mL SC, exposure times 4 hours or less) was “demonstrated local skin tolerability”, the “Tissue samples/injections with multiple focal (immune cell) infiltrates in SC” value ([1]; pig, in vivo) was 1/3 and the “Focal instances of [immune] cell infiltrates in the SC space” value ([1]; pig, in vivo, sc) was 2. The Necrosis ([1]; pig, in vivo, sc) was 0, the “Pathohistological findings (H&E)” value ([1]; pig, in vivo, sc) was “no findings” and the “AUC(1-7) of free payload in tissue homogenates of injection site, Mean” value [2] was 0.17 µg·days/mL. For the same substance, the “AUC(1-7) of total ADC (TADC) in tissue homogenates of injection site, Mean” value [2] was 18.55 µg·days/mL, the “AUC(1-7) of total antibody (TAB) in tissue homogenates of injection site, Mean” value [2] was 45.30 µg·days/mL and the “Cmax of free payload in tissue homogenates of injection site, Mean” value [2] was 180 ng/mL. The “Cmax of total ADC (TADC) in tissue homogenates of injection site, Mean” value [2] was 22860 ng/mL, the “Cmax of total antibody (TAB) in tissue homogenates of injection site, Mean” value [2] was 29410 ng/mL and the “TADC/Free Payload, mean AUC(1-7)” value [2] was 10704%. For the same substance, the “TADC/Free Payload, mean Cmax” value [2] was 12800%, the “TADC/TAB, mean AUC(1-7)” value [2] was 41% and the “TADC/TAB, mean Cmax” value [2] was 78%. The “Total ADC Result” value [2] was under 0.100 µg/mL, the “Induration (score)” value [3, 4] was 3.3 ± 0.3 and the “Swelling Size (score)” value [3, 4] was 3.1 ± 0.3. The “Induration at the 24, 48 or 72 hour timepoints” value ([3]; minipig, 10 mL SC by HVAI) was “No induration was detected”, the “Swelling at the 24, 48 or 72 hour timepoints” value ([3]; minipig, 10 mL SC by HVAI) was “No swelling was detected” and the “Swelling Score (Mean ± SEM)” value ([3]; minipig, 10 mL SC by HVAI, immediately post-injection, three evaluators, scale 0-4) was 3.1 ± 0.3. For the same substance, the “Induration Score (Mean ± SEM)” value ([3]; minipig, 10 mL SC by HVAI, immediately post-injection, two evaluators, scale 0-4) was 3.3 ± 0.3 and the “Hardness (induration) of post-injection blebs compared with blebs of the co-mix with rHuPH20” value ([3]; p<0.05, 10 mL SC) was “significantly firmer”.
